The RNAGym collection of RNA variant scans (doi:10.1093/molbev/msab373)

B1: Azoarcus group I ribozyme (parent)
chain: GUGCCUUGCGCCGGGAAACCACGCAAGGGAUGGUGUCAAAUUCGGCGAAACCUAAGCGCCCGCCCGGGCGUAUGGCAACGCCGAGCCAAGCUUCGGCGCCUGCGCCGAUGAAGGUGUAGAGACUAGACGGCACCCACCUAAGGCAAACGCUAUGGUGAAGGCAUAGUCCAGGGAGUGGCGAAAGUCACACAAACCGG

Variants of: B1
Assay: reverse-splicing fitness (ratio to wild type); higher = more active; in vitro selection; Mg2+ level not given
Summary of the method: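 An in vitro group I ribozyme library with randomized positions was T7-transcribed and gel-purified. In triplicate, 10 pmol RNA in EPPS pH 7.5 was reacted with 50 pmoles of a 30-nt RNA substrate for 1 h at 37 °C across several added MgCl2 levels (1–48 mM), then stopped with EDTA. Products were reverse transcribed from a substrate-complementary primer, PCR-amplified and sequenced (HiSeq 4000). Fitness is a variant's read proportion after selection over that before, normalised to wild type.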

Variant	reverse-splicing fitness
GUGCCUUGCGCCGGGAAACCACGCAAGGGAUGGUGUCAAAUUCGGCGAAACCUAAGCGCCCGCCCGGGCGUAUGGCAACGCAGAGCCAAGCUUCGGCGCCUGCGCCGAUGGAGGUGUAGCGACUAGACGGCACCCACCUAAGGCCAACGCUAUGGUGAAGGCAUAGUCGAGGGAGUGGCGAAAGUCACACAAACCGG	0.00965
GUGCCUUGCGCCGGGAAACCACGCAAGGGAUGGUGUCAAAUUCGGCGAAACCUAAGCGCCCGCCCGGGCGUAUGGCAACGCAGAGCCAAGCUUCGGCGCCUGCGCCGAUGGAGGUGUAGCGACUAGACGGCACCCACCUAAGGCCAACGCUAUGGUGAAGGCAUAGUCUAGGGAGUGGCGAAAGUCACACAAACCGG	0.0116
GUGCCUUGCGCCGGGAAACCACGCAAGGGAUGGUGUCAAAUUCGGCGAAACCUAAGCGCCCGCCCGGGCGUAUGGCAACGCAGAGCCAAGCUUCGGCGCCUGCGCCGAUGGAGGUGUAGCGACUAGACGGCACCCACCUAAGGCCAACGCUAUGGUGAAGGCAUAGUCAAGGGAGUGGCGAAAGUCACACAAACCGG	0.00673
GUGCCUUGCGCCGGGAAACCACGCAAGGGAUGGUGUCAAAUUCGGCGAAACCUAAGCGCCCGCCCGGGCGUAUGGCAACGCAGAGCCAAGCUUCGGCGCCUGCGCCGAUGGAGGUGUAGCGACUAGACGGCACCCACCUAAGGCCAACGUUAUGGUGAAGGCAUAGUCAAGGGAGCGGCGAAAGUCACACAAACCGG	0.00983
GUGCCUUGCGCCGGGAAACCACGCAAGGGAUGGUGUCAAAUUCGGCGAAACCUAAGCGCCCGCCCGGGCGUAUGGCAACGCAGAGCCAAGCUUCGGCGCCUGCGCCGAUGGAGGUGUAGCGACUAGACGGCACCCACCUAAGGCCAACGUUAUGGUGAAGGCAUAGUCAAGGGAGGGGCGAAAGUCACACAAACCGG	0.00704
GUGCCUUGCGCCGGGAAACCACGCAAGGGAUGGUGUCAAAUUCGGCGAAACCUAAGCGCCCGCCCGGGCGUAUGGCAACGCAGAGCCAAGCUUCGGCGCCUGCGCCGAUGGAGGUGUAGCGACUAGACGGCACCCACCUAAGGCCAACGUUAUGGUGAAGGCAUAGUCAAGGGAGAGGCGAAAGUCACACAAACCGG	0.0199
GUGCCUUGCGCCGGGAAACCACGCAAGGGAUGGUGUCAAAUUCGGCGAAACCUAAGCGCCCGCCCGGGCGUAUGGCAACGCAGAGCCAAGCUUCGGCGCCUGCGCCGAUGGAGGUGUAGCGACUAGACGGCACCCACCUAAGGCCAACGCUAUGGUGAAGGCAUAGUCGAGGGAGCGGCGAAAGUCACACAAACCGG	0.0238
GUGCCUUGCGCCGGGAAACCACGCAAGGGAUGGUGUCAAAUUCGGCGAAACCUAAGCGCCCGCCCGGGCGUAUGGCAACGCAGAGCCAAGCUUCGGCGCCUGCGCCGAUGGAGGUGUAGCGACUAGACGGCACCCACCUAAGGCCAACGCUAUGGUGAAGGCAUAGUCGAGGGAGGGGCGAAAGUCACACAAACCGG	0.00569
GUGCCUUGCGCCGGGAAACCACGCAAGGGAUGGUGUCAAAUUCGGCGAAACCUAAGCGCCCGCCCGGGCGUAUGGCAACGCAGAGCCAAGCUUCGGCGCCUGCGCCGAUGGAGGUGUAGCGACUAGACGGCACCCACCUAAGGCCAACGCUAUGGUGAAGGCAUAGUCGAGGGAGAGGCGAAAGUCACACAAACCGG	0.0285
GUGCCUUGCGCCGGGAAACCACGCAAGGGAUGGUGUCAAAUUCGGCGAAACCUAAGCGCCCGCCCGGGCGUAUGGCAACGCAGAGCCAAGCUUCGGCGCCUGCGCCGAUGGAGGUGUAGCGACUAGACGGCACCCACCUAAGGCCAACGCUAUGGUGAAGGCAUAGUCUAGGGAGCGGCGAAAGUCACACAAACCGG	0.0138
GUGCCUUGCGCCGGGAAACCACGCAAGGGAUGGUGUCAAAUUCGGCGAAACCUAAGCGCCCGCCCGGGCGUAUGGCAACGCAGAGCCAAGCUUCGGCGCCUGCGCCGAUGGAGGUGUAGCGACUAGACGGCACCCACCUAAGGCCAACGCUAUGGUGAAGGCAUAGUCUAGGGAGGGGCGAAAGUCACACAAACCGG	0.00478
GUGCCUUGCGCCGGGAAACCACGCAAGGGAUGGUGUCAAAUUCGGCGAAACCUAAGCGCCCGCCCGGGCGUAUGGCAACGCAGAGCCAAGCUUCGGCGCCUGCGCCGAUGGAGGUGUAGCGACUAGACGGCACCCACCUAAGGCCAACGCUAUGGUGAAGGCAUAGUCUAGGGAGAGGCGAAAGUCACACAAACCGG	0.0161
GUGCCUUGCGCCGGGAAACCACGCAAGGGAUGGUGUCAAAUUCGGCGAAACCUAAGCGCCCGCCCGGGCGUAUGGCAACGCAGAGCCAAGCUUCGGCGCCUGCGCCGAUGGAGGUGUAGCGACUAGACGGCACCCACCUAAGGCCAACGUUAUGGUGAAGGCAUAGUCCAGGGAGUGGCGAAAGUCACACAAACCGG	0.0161
GUGCCUUGCGCCGGGAAACCACGCAAGGGAUGGUGUCAAAUUCGGCGAAACCUAAGCGCCCGCCCGGGCGUAUGGCAACGCAGAGCCAAGCUUCGGCGCCUGCGCCGAUGGAGGUGUAGCGACUAGACGGCACCCACCUAAGGCCAACGCUAUGGUGAAGGCAUAGUCAAGGGAGGGGCGAAAGUCACACAAACCGG	0.0053
GUGCCUUGCGCCGGGAAACCACGCAAGGGAUGGUGUCAAAUUCGGCGAAACCUAAGCGCCCGCCCGGGCGUAUGGCAACGCAGAGCCAAGCUUCGGCGCCUGCGCCGAUGGAGGUGUAGCGACUAGACGGCACCCACCUAAGGCCAACGCUAUGGUGAAGGCAUAGUCAAGGGAGAGGCGAAAGUCACACAAACCGG	0.0162
GUGCCUUGCGCCGGGAAACCACGCAAGGGAUGGUGUCAAAUUCGGCGAAACCUAAGCGCCCGCCCGGGCGUAUGGCAACGCAGAGCCAAGCUUCGGCGCCUGCGCCGAUGGAGGUGUAGCGACUAGACGGCACCCACCUAAGGCCAACGCUAUGGUGAAGGCAUAGUCAAGGGAGCGGCGAAAGUCACACAAACCGG	0.0109
GUGCCUUGCGCCGGGAAACCACGCAAGGGAUGGUGUCAAAUUCGGCGAAACCUAAGCGCCCGCCCGGGCGUAUGGCAACGCAGAGCCAAGCUUCGGCGCCUGCGCCGAUGGAGGUGUAGCGACUAGACGGCACCCACCUAAGGCCAACGCUAUGGUGAAGGCAUAGUCCAGGGAGAGGCGAAAGUCACACAAACCGG	0.0165
GUGCCUUGCGCCGGGAAACCACGCAAGGGAUGGUGUCAAAUUCGGCGAAACCUAAGCGCCCGCCCGGGCGUAUGGCAACGCAGAGCCAAGCUUCGGCGCCUGCGCCGAUGGAGGUGUAGCGACUAGACGGCACCCACCUAAGGCCAACGCUAUGGUGAAGGCAUAGUCCAGGGAGCGGCGAAAGUCACACAAACCGG	0.024
GUGCCUUGCGCCGGGAAACCACGCAAGGGAUGGUGUCAAAUUCGGCGAAACCUAAGCGCCCGCCCGGGCGUAUGGCAACGCAGAGCCAAGCUUCGGCGCCUGCGCCGAUGGAGGUGUAGCGACUAGACGGCACCCACCUAAGGCCAACGUUAUGGUGAAGGCAUAGUCCAGGGAGGGGCGAAAGUCACACAAACCGG	0.00644
GUGCCUUGCGCCGGGAAACCACGCAAGGGAUGGUGUCAAAUUCGGCGAAACCUAAGCGCCCGCCCGGGCGUAUGGCAACGCAGAGCCAAGCUUCGGCGCCUGCGCCGAUGGAGGUGUAGCGACUAGACGGCACCCACCUAAGGCCAACGUUAUGGUGAAGGCAUAGUCCAGGGAGCGGCGAAAGUCACACAAACCGG	0.018
GUGCCUUGCGCCGGGAAACCACGCAAGGGAUGGUGUCAAAUUCGGCGAAACCUAAGCGCCCGCCCGGGCGUAUGGCAACGCAGAGCCAAGCUUCGGCGCCUGCGCCGAUGGAGGUGUAGCGACUAGACGGCACCCACCUAAGGCCAACGUUAUGGUGAAGGCAUAGUCCAGGGAGAGGCGAAAGUCACACAAACCGG	0.0118
GUGCCUUGCGCCGGGAAACCACGCAAGGGAUGGUGUCAAAUUCGGCGAAACCUAAGCGCCCGCCCGGGCGUAUGGCAACGCAGAGCCAAGCUUCGGCGCCUGCGCCGAUGGAGGUGUAGCGACUAGACGGCACCCACCUAAGGCCAACGUUAUGGUGAAGGCAUAGUCUAGGGAGGGGCGAAAGUCACACAAACCGG	0.00597
GUGCCUUGCGCCGGGAAACCACGCAAGGGAUGGUGUCAAAUUCGGCGAAACCUAAGCGCCCGCCCGGGCGUAUGGCAACGCAGAGCCAAGCUUCGGCGCCUGCGCCGAUGGAGGUGUAGCGACUAGACGGCACCCACCUAAGGCCAACGUUAUGGUGAAGGCAUAGUCUAGGGAGAGGCGAAAGUCACACAAACCGG	0.0132
GUGCCUUGCGCCGGGAAACCACGCAAGGGAUGGUGUCAAAUUCGGCGAAACCUAAGCGCCCGCCCGGGCGUAUGGCAACGCAGAGCCAAGCUUCGGCGCCUGCGCCGAUGGAGGUGUAGCGACUAGACGGCACCCACCUAAGGCCAACGUUAUGGUGAAGGCAUAGUCUAGGGAGCGGCGAAAGUCACACAAACCGG	0.0102
GUGCCUUGCGCCGGGAAACCACGCAAGGGAUGGUGUCAAAUUCGGCGAAACCUAAGCGCCCGCCCGGGCGUAUGGCAACGCAGAGCCAAGCUUCGGCGCCUGCGCCGAUGGAGGUGUAGCGACUAGACGGCACCCACCUAAGGCCAACGUUAUGGUGAAGGCAUAGUCGAGGGAGCGGCGAAAGUCACACAAACCGG	0.0213
GUGCCUUGCGCCGGGAAACCACGCAAGGGAUGGUGUCAAAUUCGGCGAAACCUAAGCGCCCGCCCGGGCGUAUGGCAACGCAGAGCCAAGCUUCGGCGCCUGCGCCGAUGGAGGUGUAGCGACUAGACGGCACCCACCUAAGGCCAACGUUAUGGUGAAGGCAUAGUCGAGGGAGAGGCGAAAGUCACACAAACCGG	0.025
GUGCCUUGCGCCGGGAAACCACGCAAGGGAUGGUGUCAAAUUCGGCGAAACCUAAGCGCCCGCCCGGGCGUAUGGCAACGCAGAGCCAAGCUUCGGCGCCUGCGCCGAUGGAGGUGUAGCGACUAGACGGCACCCACCUAAGGCCAACGUUAUGGUGAAGGCAUAGUCGAGGGAGGGGCGAAAGUCACACAAACCGG	0.00681
GUGCCUUGCGCCGGGAAACCACGCAAGGGAUGGUGUCAAAUUCGGCGAAACCUAAGCGCCCGCCCGGGCGUAUGGCAACGCAGAGCCAAGCUUCGGCGCCUGCGCCGAUGGAGGUGUAGCGACUAGACGGCACCCACCUAAGGCCAACGUUAUGGUGAAGGCAUAGUCGAGGGAGUGGCGAAAGUCACACAAACCGG	0.00854
GUGCCUUGCGCCGGGAAACCACGCAAGGGAUGGUGUCAAAUUCGGCGAAACCUAAGCGCCCGCCCGGGCGUAUGGCAACGCAGAGCCAAGCUUCGGCGCCUGCGCCGAUGGAGGUGUAGCGACUAGACGGCACCCACCUAAGGCCAACGUUAUGGUGAAGGCAUAGUCUAGGGAGUGGCGAAAGUCACACAAACCGG	0.0104
GUGCCUUGCGCCGGGAAACCACGCAAGGGAUGGUGUCAAAUUCGGCGAAACCUAAGCGCCCGCCCGGGCGUAUGGCAACGCAGAGCCAAGCUUCGGCGCCUGCGCCGAUGGAGGUGUAGCGACUAGACGGCACCCACCUAAGGCCAACGUUAUGGUGAAGGCAUAGUCAAGGGAGUGGCGAAAGUCACACAAACCGG	0.00838
